Tests used:
MfIDH = target: T1, MfIDH (Methylobacillus flagellatus, UniProt Q1GZD1); assay: NAD(P)H formation at […] nm; format: biochemical; settings: read-out: % inhibition at 2 mM
T1 construct: gene Mfla_2139; native enzyme purified from M. flagellatus cells, untagged; 413 residues; homodimer (recombinant N-terminal 6xHis form said to be essentially the same)
T1 sequence (Q1GZD1 1-413): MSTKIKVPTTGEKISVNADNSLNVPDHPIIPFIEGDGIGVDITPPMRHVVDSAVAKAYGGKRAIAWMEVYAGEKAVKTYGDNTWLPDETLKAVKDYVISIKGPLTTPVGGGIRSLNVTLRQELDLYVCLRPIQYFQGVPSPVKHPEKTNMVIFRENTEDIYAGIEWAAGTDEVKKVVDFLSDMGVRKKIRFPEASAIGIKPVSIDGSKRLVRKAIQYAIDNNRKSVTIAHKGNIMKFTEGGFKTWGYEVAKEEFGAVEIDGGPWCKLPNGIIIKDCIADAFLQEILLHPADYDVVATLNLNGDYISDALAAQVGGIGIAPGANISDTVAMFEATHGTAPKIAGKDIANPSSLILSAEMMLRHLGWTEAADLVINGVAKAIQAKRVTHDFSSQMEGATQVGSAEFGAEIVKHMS

[1] = target: recombinant 6x-His-tagged isocitrate dehydrogenase from Methylobacillus flagellatus (Methylobacillus flagellatus ATCC51484); assay: SEC; HiLoad 10/300 Superdex 200, 0.05 M potassium phosphate buffer pH 7.0, 0.15 M NaCl, 0.01% sodium azide, 0.5 mL/min; calibrated with standards of 29-669 kDa
[2] = target: native isocitrate dehydrogenase from Methylobacillus flagellatus (Methylobacillus flagellatus ATCC51484); assay: native gel or EMSA; gradient non-denaturing PAGE (4-20%, w/v), protein stain and zymogram staining for NAD+- and NADP+-dependent activity; band compared with protein markers
purified protein [3] = substrate: NC(=O)c1ccc[n+]([C@@H]2O[C@H](COP(=O)(O)OP(=O)(O)OC[C@H]3O[C@@H](n4cnc5c(N)ncnc54)[C@H](O)[C@@H]3O)[C@@H](O)[C@H]2O)c1; assay: purified protein; format: biochemical, Methylobacillus flagellatus; settings: saturating DL-isocitrate, Mn2+, 100 mM Tris-HCl pH 8.5, 42°C, apparent, pH 8.5
purified protein [4] = substrate: NC(=O)c1ccc[n+]([C@@H]2O[C@H](COP(=O)(O)OP(=O)(O)OC[C@H]3O[C@@H](n4cnc5c(N)ncnc54)[C@H](OP(=O)(O)O)[C@@H]3O)[C@@H](O)[C@H]2O)c1; assay: purified protein; format: biochemical, Methylobacillus flagellatus; settings: saturating DL-isocitrate, Mn2+, 100 mM Bis-Tris-HCl pH 6.0, 42°C, apparent, pH 6.0
purified protein [5] = substrate: O=C(O)CC(C(=O)O)C(O)C(=O)O; assay: purified protein; format: biochemical, Methylobacillus flagellatus; settings: cosubstrate NAD+ (saturating), Mn2+, 100 mM Tris-HCl pH 8.5, 42°C, pH 8.5

`Nc1ncnc2c1ncn2[C@@H]1O[C@H](COP(=O)(O)OP(=O)(O)OP(=O)(O)O)[C@@H](O)[C@H]1O` [ATP] was tested, and the inhibition at 2000 µM (MfIDH) was 50%.

Work on “recombinant 6x-His-tagged isocitrate dehydrogenase from Methylobacillus flagellatus (enzyme)” yielded a stoichiometry N [1] of 2.

With “native isocitrate dehydrogenase from Methylobacillus flagellatus (enzyme)” the stoichiometry N [2] was 2.

B1: MfIDH (Methylobacillus flagellatus KT) (protein)
chain: MSTKIKVPTTGEKISVNADNSLNVPDHPIIPFIEGDGIGVDITPPMRHVVDSAVAKAYGGKRAIAWMEVYAGEKAVKTYGDNTWLPDETLKAVKDYVISIKGPLTTPVGGGIRSLNVTLRQELDLYVCLRPIQYFQGVPSPVKHPEKTNMVIFRENTEDIYAGIEWAAGTDEVKKVVDFLSDMGVRKKIRFPEASAIGIKPVSIDGSKRLVRKAIQYAIDNNRKSVTIAHKGNIMKFTEGGFKTWGYEVAKEEFGAVEIDGGPWCKLPNGIIIKDCIADAFLQEILLHPADYDVVATLNLNGDYISDALAAQVGGIGIAPGANISDTVAMFEATHGTAPKIAGKDIANPSSLILSAEMMLRHLGWTEAADLVINGVAKAIQAKRVTHDFSSQMEGATQVGSAEFGAEIVKHMS
notes: native enzyme purified from M. flagellatus cells, untagged; 413 residues; homodimer (recombinant N-terminal 6xHis form said to be essentially the same)
B1 showed a Km (purified protein [3]) of 113 µM, a kcat (purified protein [3]) of 166 s⁻¹ and a kcat/Km (purified protein [3]) of 1.5e+06 M⁻¹ s⁻¹. For the same molecule, the Km (purified protein [4]) was 184 µM, the kcat (purified protein [4]) was 56 s⁻¹ and the kcat/Km (purified protein [4]) was 300000 M⁻¹ s⁻¹. It also gave a Km (purified protein [5]) of 9.0 µM.

From paper PMC5397045, “Biochemical and molecular characterization of the isocitrate dehydrogenase with dual coenzyme specificity from the obligate methylotroph Methylobacillus Flagellatus” (PLoS ONE, 2017)
